According to a protein production outcome set (Wang et al. 2014):

Experiment: label from the status in PepcDB records

Sequence	protein production
MDLFNAPIAPLQVLHDQQGGVRYWPHLLPPALAQEAFDALRDDADWRSQRREMYDRVVDVPRLLASYRLDDALPAGLPLQRLLDAVQAVLPAPYNAVGLNLYRDGRDSVAMHHDALHTLVAPHPIALLSLGTPRRMQLRAKDGSTRAVALELAPGSLLAMSHASQHTHVHGIAKSTRAVGERISVVFRVRPAQRMAAGQHGPHWEPVQS	failed
MRLRLLSLPFILSLCAPLLPLNTLAAERIVTIGGDVTEIAYALGAGDEIVARDSTSQQPQAAQKLPDVGYMRTLNAEGILAMKPTMLLVSELAQPSLVLTQIASSGVNVVTVPGQTTPESVAMKINAVATALHQTEKGQKLIEDYQQRLAAVNKTPLPVKVLFVMSHGGLTPMAAGQNTAADAMIRAAGGSNAMQGFSRYRPLSQEGVIASAPDLLLITTDGVKALGSSENIWKLPGMALTPAGKHKRLLVVDDMALLGFGLETPQVLAQLREKMEQMQ	failed
MGDPFGGRFGGFRGSLFGGRDPFDDPFFSRPFEDLLEPSNTFSSGASFSNAHKNNGGRGLTIEELPSDEEVEERKDIGIDDQEHASSVNKPSVEHPEDDSDAERKIQNVNQRSDFNRREGTQSRANTFRHHISKVTYGGIHGAYYTSTRTRRKDGDGMVVEESKEADKTTGEATHRISRGINDKVIDYTVDGHSVTRKLNSSGGVESTQTLHNLDEGPAESTQPYHNLKFFERKLAGF	failed
MDSSLANINQIDVPSKYLRLLRPVAWLCFLLPYAVGFGFGITPNASLQHAVLGLLSFAFWMAFSFTINALYDRDVDRLHDGRVKDLNLSMQPLVTGEISVREAWLYCIAFLALSLATAAAINEKFFLAMLGANIIGYVYSAPPRFKAWPVMDVICNALAAVLAFYAGLSIGGAEVPIAIYPAAFFLAATFYIPTAVSDYEFDKKAGLKNTPVFFGPERALKSLYPLSAITVILWAYVFLMAERIEIKVISPLIIAYTLIYTFIINSRWDGEKLNVSPNLILTPFGIISALFIAYGFAVISVLG	failed
ILWSQFLKFKEMELPAKEADKNRSKGIYQSLEGAVQAGQLKVPPGYHPLDVEKEWGKLHVAILEREKQLRSEFERLECLQRIVTKLQMEAGLCEEQLHQADALLQSDIRLLAAGKVPQRAGEVERDLDKADSMIRLLFNDVQTLKDGRHPQGEQMYRRVYRLHERLVAIRTEYNLRLK	failed
MDPLLLIGAITAGGVLIGGGVHFVPVGGAPAAMATATGVGTGTAMLAAGAGLTGLITAAAMTGQSPLMIMAAGAVGSMLMIGITMLVGNLIYVYGVGTVPVSAKVAVDPLTGMEQEKYVTPGTEGHGLPTVCFVSGIIGGALGGIGGGLIYWALNEALKTLSYGAIGAAGVAAIFAVGIFFINAVIASYNIGGTIEGFHDPKFKRIGRGIVACLIASIVAGALSTLLVYGGVF	failed
MEVMRGVRVIEGMNGGRFPYCNVVVVGDVVIDAGAGLEVMRKVNASLLVLSHLHPDHSSGAWLFKDVLAPAEGRITLDTLARRFVAPDLVESWKRFISAATGLREFECERYEEGVVVKEPEIVAVPVKGHTMDHHVFLIEQKVLFGADVDLTSFGPFYGNPEADPYLFEREMDKLLDIDFEIFVSAHSKPLEHHHHHH	failed
MRVTWEEAGWESVAPFVGRRRLPGWDCTVGLVIGDSAALMIDAGSSLREGALLRAEAQRLLGPGRRVTHLALTHPHFDHVFGAAAFSGVEVFGAVGLDTALAHGREELRADAVRNGLDPRAAEGAADLLVRPRHHVFGEWTLDLGGEVQVLLANVGPGHTAYDLAVLVSSSPEVVFCGDLVEESGEPQAGPDAIPSHWPAALDRLLDLGGQDAVYVPGHGATVDAAFVRTQRDELAARFGIA	failed
MTTYTFDQVEEAIEQLYPDFTINTIEISGEGNDCIAYEINGNFIFKFPKHSRASINLLNEVTVLKTIHNELSLPIPEVVFTGMPSEMCQMSFAGFTKIKGVPLTPLLLKNLPKQSQDQAAKDLARFLSELHSINISGFKSNLVLDFREKINEDNKKIKKLLSRELKGHQMKKVDDFYRDILDNEIYFKYYPCLIHNDFSSDHILFDTEKNTICGIIDFGDAAISDPDNDFISLMEDDEEYGMEFVSKILNHYKHKDIPTVLEKYMMKEKYWSFEKIIYGKEYGYMDWYEEGLNEIRSIKIK	not failed
METPYHQRWLAFPDAVSSYRPLESRLAGTSRATADNRTPCTGRLGTPRVFLMATDDVSKAYSSPTFDAEALLGTVISAEDPDRVLIEPWATGVDGVILDVGSGTGRWTGHLASLGHQIEGLEPATRLVELARQTHPSVTFHHGTITDLSDSPKRWAGLLAWYSLIHMGPGELPDALVALRMAVEDGGGLLMSFFSGPSLEPMYHPVATAYRWPLPELAQALETAGFQVTSSHWDPRFPHAYLTAEASLEHHHHHH	not failed
MAGVITGFAIILSVIGVGFLLAKLGVINDDKQRLVLNRIAFYAATPALLFNVVARSDPSALISPVIVVTFVATIVTAAVYCVISAIFFKKDIATTATGAAASAYVNSNNIGLPVSIYVLGTGAYVAPILVMQMVIFAPMILAALTSGDVKGSRGQKIWAAVKGSLLSPIVLASIAGLIVCLLEIQLPAAVMEPTIILGGASIPLILMSFGASLPSTNVLASKADRPSVLTATAIKIVGMPAITWLIAKAFGLEGDYLYAAVILAALPAAQNVYNYAATYRKGEIVARDTVFLTTFLALLGMLGIAALFGR	not failed
MAQVNKQAIAAAFGRAASQYEQHASLQQHSADALLTLLTGRQFASVLDAGCGPGRMSRYWRERGSEVTALDLSLPMLQQARDRQAAHHYLLADIEAIPHDAEVFDLAWSNLAVQWCGDLRDALSELYRVVRPGGVVAFTTLCQGSLPELRQAWQAVDNRAHANSFLPEEAIDHALRGWRAFRHTQAMTLWFEDALSAMRSLKGIGATHLHEGRESDVLTRARLRQIQLAWPQRQGKYPLTYHLFMGVIERD	failed
KIMIAALDYDPGDGQMGGQGKGRLALRAGDVVMVYGPMDDQGFYYGELGGHRGLVPAHLLDHMSLHGH	not failed
MSFTWRKKMDAKTNNAISKSMMFFHWVIGLGMIAVLISGLVMDDESNNLLFNAHMSFGLLVLALSVPRLVGRLIGGMPKPMTERSKFESIAAAVVMYSLLALTVVLPLSGIAVSVGEGYGLSLFGFELVSSGREIHMLKELGEGIHEFSGEALLPFLLVLHLGASFMHHFIKQDGTLLRMLGKA	failed
MKDIIITSQKIKRERNIYLICFLLSFAINIIAILVYTRPWIEIFTQLGYVLVISFFIYFILWIPRILVIGLRHLLRKKK	failed
QGHLVHMTVVSGSNVTLNISESLPENYKQLTWFYTFDQKIVEWDSRKSKYFESKFKGRVRLDPQSGALYISKVQKEDNSTYIMRVLKKTGNEQEWKIKLQVLDPVPKPVIKIEK	not failed
MLTDALLAFLHFTAIFVLVTLMAAEAVVLRPDMPPSAVRRLSQYDFFYFLSAMVVLATGLLRLFYGAKGVDFYLHNPWFHAKITVFVLIALATLPPTFAFARWRKQSLKLPEFVPTPAEIKKVRRWVMIEAHAFILLPLCAVMMARGIGIH	failed
MGNQFSINRNRPANAGEAHASSTEAKPAPDAASPSRQVRVATAPSILEGLRKLRLPFNFGARVPPLPEETWAEIARRVDTKTLHRMRAVSKTLKAAADTEIRQLTVNTVEALQAAKRYACLETLKMDGYFGDADLEGLPASLRELDLFSTRYVSAKGLAHLSKLPLVRLKVRANGIHAEAARALAASTTLTALDIRGNGIGDAGAQALAANTSITSLDASFNDIGVAGARALAANTTLTSLDLGFNAIGDEGLQALATNTSLTSLTVGSCEIGDAGAAALANNTALTSVDLTCNHIGEEGAEGLAANTVLTSLDLTRNSISDRGAAALAGNTTLTSLCVNFNDIYGRGARWLAENTTLTTLDISYNPIGDWGALGLADNMTLRSLSVVAGRIGVEGARALAGNTTLTTLDISVNAIGNEGAQALAANATLTTLSLRSCELRAAAAEAFKANTTLASLDIGENRIEAAGAQALADNTALTTLRVTGNQIGMAGAQALAANRSLTKLNISQNDIRSAGAQALAANTSLTSLDVSSASIGAAGAQALAANTSITWLNINDNHIGDAGAQALAAHPALTSLYACDNFIGTAGVQALAANTRLTSLSIWGNRIGDAGVKALAANTTLTKLTIGKRVDKQLGEQIGDLAWQELMASVDRSGMTFHSL	failed
DKITFKGDGDQSDPDGEPGDVVIVIQQKDHDIFKRDGDDLHMTKKLSLNEALCGYNFLIKHLDGHPLVLSSKQGDVIKPGVIRGVLGKGMPNKKYPELKGNLFVEFEVEFPKEHFLDDEKAYAVLK	not failed
